Target: TGFβ receptor complex of wild type TβRII and kinase-deficient TβRI (KR) (Homo sapiens (Human)) (UniProt P37173)
Experiment: anti-Flag IP of [125I]TGFβ affinity-labelled receptors, gamma counting; reference: without Smad2

- fold enhancement of receptor binding by coexpressed Smad2: 2 fold
Substance: Flag-tagged hSARA1

— patent US7105636B1
